Measured values reported in publication PMC5420313.

Target: GST-Dyn2(DQR)_(motor) (D1406A/Q1407A/R1410A mutant of GST-Dyn2_(motor)) (human) (UniProt Q8NCM8)

- maximum velocity of microtubule gliding by the unstacked GST-Dyn2(DQR) (motor): 562 nm/s
Substance: GST-Dyn2(DQR)_(motor) (D1406A/Q1407A/R1410A mutant of GST-Dyn2_(motor)), Q8NCM8 1091-4307
